Data on one molecule can be found in patent US20110200629A1.

This assay concerns the target T1, HLA-A0201 (human), P04439.
T1 chain: not shown

B1: murine H-2 Kb binding peptide VSV8 (RGYVYQGL, SEQ ID NO:6) (peptide)
peptide: RGYVYQGL
modifications: not checked
B1 had a % MFI increase of 5.6%.
